Results published in patent US20140112929A1.

Target: TNFR1 on human umbilical vein endothelial cells (HUVEC) (human) (UniProt P19438)
UniProt P19438, sequence (P19438 30-455): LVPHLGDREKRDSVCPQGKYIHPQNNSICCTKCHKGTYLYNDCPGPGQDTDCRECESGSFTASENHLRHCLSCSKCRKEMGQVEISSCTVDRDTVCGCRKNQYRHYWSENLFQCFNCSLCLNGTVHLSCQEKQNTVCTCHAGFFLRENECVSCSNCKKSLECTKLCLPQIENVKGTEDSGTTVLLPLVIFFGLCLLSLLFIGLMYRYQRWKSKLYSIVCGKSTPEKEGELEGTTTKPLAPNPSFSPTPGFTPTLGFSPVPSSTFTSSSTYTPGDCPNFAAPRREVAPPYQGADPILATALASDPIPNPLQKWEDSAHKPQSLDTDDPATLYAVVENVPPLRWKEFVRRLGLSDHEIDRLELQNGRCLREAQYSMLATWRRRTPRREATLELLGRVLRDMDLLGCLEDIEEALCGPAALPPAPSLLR

DOM1h-131-206, sequence (VH): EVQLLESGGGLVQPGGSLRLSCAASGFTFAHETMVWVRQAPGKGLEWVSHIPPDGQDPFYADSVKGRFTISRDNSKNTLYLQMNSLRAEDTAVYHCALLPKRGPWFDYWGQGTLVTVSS

IC50 (read off the curve) [b]: 0.5 nM
Substance: DOM1h-131-206
